Experimental findings from patent US20240043528A1, “NANOBODY-OGA FUSIONS AND USES THEREOF” (President and Fellows of Harvard College, priority 2020, published 2024) are described below.

Data set [1] deals with GFP-Nup62. Put plainly: Deglycosylation of GFP-Nup62 co-expressed with OGA constructs (anti-EPEA enrichment, RL2 immunoblot). In kind it is cell-based, human. As to conditions: co-expressed in HEK 293T cells. On the procedure:
HEK 293T cells were cultured in Dulbecco's Modified Eagle Medium (DMEM, Cat #11995073) supplemented with penicillin (50 μg/mL) and streptomycin (50 μg/mL) along with 10% (v/v) FBS. Transfections of all plasmids in this study were performed using TransIT-PRO® (Mirus Bio, Cat #MIR 5740) according to the manufacturer's instructions.
Glycoproteins Nup62, Sp1, JunB, c-Jun were subcloned into pcDNA3.1 vector with a GFP and a Flag-tag or a BC2 tag in the N-terminus and an EPEA tag in the C terminus respectively, unless otherwise noted. For all split OGA constructs with or without the fusion of nanobody GFP, N fragments were tagged with myc tag and C fragments were tagged with HA tag respectively. Human SP1 cDNA ORF plasmid (Cat #HG12024-G), human c-Fos cDNA ORF plasmid, and human OGT cDNA ORF cloned with a C-terminal His tag (Cat #HG11279-M) were purchased from Sino Biological. For subcloning, PCR fragments were amplified using Q5 High-Fidelity 2× Master Mix (New England BioLabs, Cat #M0492S). The vectors were double-digested and ligated to gel-purified PCR products by T4 ligation using T4 DNA ligase (New England BioLabs, Cat #M0202S) or by Gibson assembly using Gibson Assembly Master mix (New England BioLabs, Cat #E2611L). c-Fos was subcloned into a pcDNA3.1 vector with a 14-residue Ubc tag (amino acids: QADQEAKELARQIA (SEQ ID NO: 11)), Flag tag, and EPEA tag at the C terminus. All nanobody DNA fragments were synthesized by IDT.
After 36-48 h of transfection, cells were harvested and washed with PBS once. Cells were lysed with M-PER lysis buffer containing 1× protease inhibitor cocktail and 10 μM Thiamet-G unless otherwise noted. Protein concentrations were determined by the BCA assay kit (G-Biosciences, 786) on a multi-mode microplate reader FilterMax F3 (Molecular Devices LLC, Sunnyvale, CA).
For immunoprecipitation of proteins with the C-terminal EPEA tag, cell lysates with equal amounts of protein were diluted with PBS and incubated with C-tag affinity matrix (Thermo Scientific) for 1 h at room temperature, with end-to-end rotation, following the manufacturer's instructions. After washing three times with PBS buffer, the enriched proteins were eluted with SDS sample buffer and subjected to SDS-PAGE.
For immunoblotting analysis, proteins were transferred to a nitrocellulose membrane using iBlot (Thermo Scientific). Membranes were blocked with Tris buffered saline containing 0.1% Tween-20 and 5% BSA and incubated with the primary antibodies (1:1000 dilution) and the secondary antibodies (1:10,000 dilution) sequentially. Immunoblot images were captured by Azure Imager C600. Analysis of immunoblots was conducted with Fiji ImageJ. All IR fluorescence western blot images are converted into grayscale images by Fiji ImageJ. The unsaturated exposure of immunoblot images was used for quantification with the appropriate loading controls as standards. Statistical analysis of the data was performed with Prism 8, using data from at least three independent experiments.
(In western blotting, separated proteins are transferred to a membrane and probed.)

Data set [2] has as its target T1, OGT (Homo sapiens, UniProt O15294).
T1 construct: host or cells: HEK 293T
T1 sequence (O15294 1-1046): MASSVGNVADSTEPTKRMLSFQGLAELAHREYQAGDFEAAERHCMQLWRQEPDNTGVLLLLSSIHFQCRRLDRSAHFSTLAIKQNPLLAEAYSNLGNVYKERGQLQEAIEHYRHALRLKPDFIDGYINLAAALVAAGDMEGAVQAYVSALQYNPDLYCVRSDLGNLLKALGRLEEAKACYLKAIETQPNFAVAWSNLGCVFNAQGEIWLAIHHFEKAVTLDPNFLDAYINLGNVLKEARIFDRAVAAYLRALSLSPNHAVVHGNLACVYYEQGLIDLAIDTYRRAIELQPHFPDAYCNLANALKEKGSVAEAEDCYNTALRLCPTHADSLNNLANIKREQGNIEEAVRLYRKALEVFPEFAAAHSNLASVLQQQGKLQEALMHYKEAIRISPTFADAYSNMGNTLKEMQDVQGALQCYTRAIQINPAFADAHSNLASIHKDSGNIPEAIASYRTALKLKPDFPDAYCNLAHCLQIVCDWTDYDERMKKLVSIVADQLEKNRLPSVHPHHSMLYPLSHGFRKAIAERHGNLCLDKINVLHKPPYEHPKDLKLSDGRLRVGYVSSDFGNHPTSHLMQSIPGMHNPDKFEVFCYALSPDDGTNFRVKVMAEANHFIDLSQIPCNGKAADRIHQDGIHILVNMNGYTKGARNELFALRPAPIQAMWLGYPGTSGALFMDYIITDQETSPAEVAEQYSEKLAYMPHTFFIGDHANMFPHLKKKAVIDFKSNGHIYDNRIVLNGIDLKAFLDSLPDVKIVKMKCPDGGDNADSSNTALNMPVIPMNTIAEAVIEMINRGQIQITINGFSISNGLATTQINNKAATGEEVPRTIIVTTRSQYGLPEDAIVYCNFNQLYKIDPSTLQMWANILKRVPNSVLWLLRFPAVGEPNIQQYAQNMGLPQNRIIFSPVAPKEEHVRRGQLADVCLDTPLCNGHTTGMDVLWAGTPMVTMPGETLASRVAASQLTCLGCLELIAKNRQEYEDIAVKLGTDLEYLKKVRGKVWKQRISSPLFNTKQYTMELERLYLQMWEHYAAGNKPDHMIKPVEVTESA
Put plainly: Co-immunoprecipitation of OGA constructs with His-tagged OGT. It counts as cell-based. As to conditions: OGT-His co-transfected in HEK 293T cells. On the procedure: For immunoprecipitation of proteins with His tag, cells were lysed in a buffer containing 50 mM Tris HCl pH 8.0, 150 mM NaCl, 1% Triton X-100, 5% glycerol, 1× protease inhibitor cocktail and 10 μM Thiamet-G on ice for 20 min. Cell lysates with equal amounts of protein were diluted with wash buffer (50 mM Tris HCl pH 8.0, 150 mM NaCl, 0.01% Tween-20) and incubated with pre-washed His-Tag Dynabeads (Invitrogen, 10103D) at room temperature for 20 min with mixing, following the manufacturer's instructions. After washed 4 times with wash buffer, the enriched proteins were eluted with elution buffer (300 mM Imidazole, 50 mM Tris HCl pH 8.0, 150 mM NaCl, 0.01% Tween-20) on a shaker for 10 min at room temperature.

B1: split OGA (N2+C3): split OGA fragments N2 and C3 without nanobody (protein)
chain 1: MEQKLISEEDLAIAMVQKESQATLEERESELSSNPAASAGASLEPPAAPAPGEDNPAGAGGAAVAGAAGGARRFLCGVVEGFYGRPWVMEQRKELFRRLQKWELNTYLYAPKDDYKHRMFWREMYSVEEAEQLMTLISAAREYEIEFIYAISPGLDITFSNPKEVSTLKRKLDQVSQFGCRSFALLFDDIDHNMCAADKEVFSSFAHAQVSITNEIYQYLGEPETFLFCPTEYCGTFCYPNVSQSPYLRTVGEKLLPGIEVLWTGPKVVSKEIPVESIEEVSKIIKRAPVIWDNIHANDYDQKRLFLGPYKGRSTELIPRLKGVLTNPNCEFEANYVAIHTLATWYKSNMNGVRKDVVMTDSEDSTVSIQIKLENEGSDEDIETDVLYSPQMALKLALTEWLQEFGVPHQYSSR
chain 2: MAYPYDVPDYAAIAEKPLYTAEPVTLEDLQLLADLFYLPYEHGPKGAQMLREFQWLRANSSVVSVNCKGKDSEKIEEWRSRAAKFEEMCGLVMGMFTRLSNCANRTILYDMYSYVWDIKSIMSMVKSFVQWLGCRSHSSAQFLIGDQEPWAFRGGLAGEFQRLLPIDGANDLFFQPP
For B1, the “deglycosidase activity / O-GlcNAc modification level on GFP-Nup62” value in data set [1] was “limited substrate activity”; in data set [1] (listed as N2-C3 pair), “significantly reduced activity”. In data set [2], the “interaction with OGT” value is on record as “unable to interact with OGT”.
